# Laboratory results taken from the supplement of paper PMC10567573.
# B1: MMP1 (parent)
# chain: MFFKDRFYMRTNPFYPEVELNFIS
# Variants of: B1
# Assay: protein stability index of a GFP-peptide fusion (GPS, HEK-293T) (PSI 1-6); higher = more stable
# Settings: c terminus: a fixed tail appended
# 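Note: lentivirally expressed fusions sorted by FACS into six bins by GFP to DsRed ratio, PSI derived from sequencing read proportions per bin multiplied by bin number.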
row,Variant,protein stability index
1,MFFKDRFYMGTNPFYPEVELNFIS [R10G],2.73
2,MFFKDRFYMHTNPFYPEVELNFIS [R10H],2.42
3,MFFKDRFYMKTNPFYPEVELNFIS [R10K],2.74
4,MFFKDRFYMLTNPFYPEVELNFIS [R10L],2.79
5,MFFKDRFYMMTNPFYPEVELNFIS [R10M],2.88
6,MFFKDRFYMNTNPFYPEVELNFIS [R10N],3.09
7,MFFKDRFYMPTNPFYPEVELNFIS [R10P],2.77
8,MFFKDRFYMQTNPFYPEVELNFIS [R10Q],2.17
9,MFFKDRFYMSTNPFYPEVELNFIS [R10S],3.42
10,MFFKDRFYMTTNPFYPEVELNFIS [R10T],2.47
11,MFFKDRFYMVTNPFYPEVELNFIS [R10V],3
12,MFFKDRFYMWTNPFYPEVELNFIS [R10W],2.82
13,MFFKDRFYMYTNPFYPEVELNFIS [R10Y],2.63
14,MFFKDRFYMRANPFYPEVELNFIS [T11A],3.18
15,MFFKDRFYMRCNPFYPEVELNFIS [T11C],3.79
16,MFFKDRFYMRDNPFYPEVELNFIS [T11D],3.5
17,MFFKDRFYMRENPFYPEVELNFIS [T11E],3.11
18,MFFKDRFYMRGNPFYPEVELNFIS [T11G],2.64
19,MFFKDRFYMRHNPFYPEVELNFIS [T11H],1.78
20,MFFKDRFYMRINPFYPEVELNFIS [T11I],1.63
21,MFFKDRFYMRKNPFYPEVELNFIS [T11K],3.17
22,MFFKDRFYMRLNPFYPEVELNFIS [T11L],2.72
23,MFFKDRFYMRMNPFYPEVELNFIS [T11M],3.47
24,MFFKDRFYMRNNPFYPEVELNFIS [T11N],2.96

row,Variant,protein stability index
1,MFFKDRFYMRPNPFYPEVELNFIS [T11P],3.77
2,MFFKDRFYMRQNPFYPEVELNFIS [T11Q],2.59
3,MFFKDRFYMRRNPFYPEVELNFIS [T11R],2.28
4,MFFKDRFYMRSNPFYPEVELNFIS [T11S],2.32
5,MFFKDRFYMRVNPFYPEVELNFIS [T11V],4.1
6,MFFKDRFYMRWNPFYPEVELNFIS [T11W],3.68
7,MFFKDRFYMRTCPFYPEVELNFIS [N12C],3.02
8,MFFKDRFYMRTDPFYPEVELNFIS [N12D],3.11
9,MFFKDRFYMRTEPFYPEVELNFIS [N12E],4.11
10,MFFKDRFYMRTFPFYPEVELNFIS [N12F],3.09
11,MFFKDRFYMRTGPFYPEVELNFIS [N12G],2.91
12,MFFKDRFYMRTHPFYPEVELNFIS [N12H],2.87
13,MFFKDRFYMRTIPFYPEVELNFIS [N12I],2
14,MFFKDRFYMRTKPFYPEVELNFIS [N12K],3.17
15,MFFKDRFYMRTLPFYPEVELNFIS [N12L],2.51
16,MFFKDRFYMRTMPFYPEVELNFIS [N12M],2.94
17,MFFKDRFYMRTPPFYPEVELNFIS [N12P],3.4
18,MFFKDRFYMRTQPFYPEVELNFIS [N12Q],2.67
19,MFFKDRFYMRTRPFYPEVELNFIS [N12R],3.81
20,MFFKDRFYMRTSPFYPEVELNFIS [N12S],2.74
21,MFFKDRFYMRTTPFYPEVELNFIS [N12T],2.56
22,MFFKDRFYMRTVPFYPEVELNFIS [N12V],2.43
23,MFFKDRFYMRTWPFYPEVELNFIS [N12W],3
24,MFFKDRFYMRTYPFYPEVELNFIS [N12Y],3.12

row,Variant,protein stability index
1,MFFKDRFYMRTNAFYPEVELNFIS [P13A],2.38
2,MFFKDRFYMRTNCFYPEVELNFIS [P13C],2.68
3,MFFKDRFYMRTNDFYPEVELNFIS [P13D],3.62
4,MFFKDRFYMRTNGFYPEVELNFIS [P13G],2.62
5,MFFKDRFYMRTNHFYPEVELNFIS [P13H],2.46
6,MFFKDRFYMRTNIFYPEVELNFIS [P13I],2.85
7,MFFKDRFYMRTNKFYPEVELNFIS [P13K],2.58
8,MFFKDRFYMRTNLFYPEVELNFIS [P13L],2.37
9,MFFKDRFYMRTNMFYPEVELNFIS [P13M],2.66
10,MFFKDRFYMRTNNFYPEVELNFIS [P13N],2.29
11,MFFKDRFYMRTNQFYPEVELNFIS [P13Q],1.76
12,MFFKDRFYMRTNRFYPEVELNFIS [P13R],3.31
13,MFFKDRFYMRTNSFYPEVELNFIS [P13S],1.94
14,MFFKDRFYMRTNVFYPEVELNFIS [P13V],3.62
15,MFFKDRFYMRTNWFYPEVELNFIS [P13W],3.9
16,MFFKDRFYMRTNYFYPEVELNFIS [P13Y],2.35
17,MFFKDRFYMRTNPAYPEVELNFIS [F14A],3.69
18,MFFKDRFYMRTNPCYPEVELNFIS [F14C],2.65
19,MFFKDRFYMRTNPDYPEVELNFIS [F14D],3.86
20,MFFKDRFYMRTNPEYPEVELNFIS [F14E],3.46
21,MFFKDRFYMRTNPGYPEVELNFIS [F14G],2.92
22,MFFKDRFYMRTNPHYPEVELNFIS [F14H],2.82
23,MFFKDRFYMRTNPIYPEVELNFIS [F14I],2.54
24,MFFKDRFYMRTNPKYPEVELNFIS [F14K],3.31

row,Variant,protein stability index
1,MFFKDRFYMRTNPLYPEVELNFIS [F14L],2.62
2,MFFKDRFYMRTNPMYPEVELNFIS [F14M],1.73
3,MFFKDRFYMRTNPNYPEVELNFIS [F14N],2.87
4,MFFKDRFYMRTNPQYPEVELNFIS [F14Q],2.58
5,MFFKDRFYMRTNPRYPEVELNFIS [F14R],3.1
6,MFFKDRFYMRTNPTYPEVELNFIS [F14T],2.33
7,MFFKDRFYMRTNPVYPEVELNFIS [F14V],3.62
8,MFFKDRFYMRTNPYYPEVELNFIS [F14Y],2.96
9,MFFKDRFYMRTNPFAPEVELNFIS [Y15A],1.72
10,MFFKDRFYMRTNPFCPEVELNFIS [Y15C],3.47
11,MFFKDRFYMRTNPFDPEVELNFIS [Y15D],3.35
12,MFFKDRFYMRTNPFEPEVELNFIS [Y15E],2.15
13,MFFKDRFYMRTNPFFPEVELNFIS [Y15F],2.63
14,MFFKDRFYMRTNPFGPEVELNFIS [Y15G],2.09
15,MFFKDRFYMRTNPFHPEVELNFIS [Y15H],2.19
16,MFFKDRFYMRTNPFIPEVELNFIS [Y15I],3.09
17,MFFKDRFYMRTNPFKPEVELNFIS [Y15K],2.72
18,MFFKDRFYMRTNPFLPEVELNFIS [Y15L],3.33
19,MFFKDRFYMRTNPFMPEVELNFIS [Y15M],1.97
20,MFFKDRFYMRTNPFNPEVELNFIS [Y15N],2.94
21,MFFKDRFYMRTNPFPPEVELNFIS [Y15P],2.4
22,MFFKDRFYMRTNPFQPEVELNFIS [Y15Q],1.34
